Assay [1] deals with T1, human PRLR (Biacore antigen) (human, UniProt P16471 25-234, limits assumed).
T1 construct: The construct injected over captured antibody is not described (a soluble form is likely); also called huPRLR
T1 sequence: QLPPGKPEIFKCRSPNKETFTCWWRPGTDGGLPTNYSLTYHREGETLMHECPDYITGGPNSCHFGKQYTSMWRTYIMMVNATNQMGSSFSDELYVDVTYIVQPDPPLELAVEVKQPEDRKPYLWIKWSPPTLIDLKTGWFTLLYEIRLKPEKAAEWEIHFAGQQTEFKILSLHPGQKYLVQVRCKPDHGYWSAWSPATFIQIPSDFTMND
In words: SPR simultaneous binding; PRLR held by surface mAb Ab49. As to the method:
(§1) Running buffer was HBS-EP+ (10 mM Hepes, pH7.4, 150 mM NaCl, 3 mM EDTA, 0.05% surfactant). Assay was performed at 12° C. using Biacore T200 and CM5 sensor chips with anti-human IgG (Pierce) amine-coupled in all 4 flow cells to ˜2000 RU.
(§2) Separate test mAbs were captured in flowcells 2, 3 & 4 (flowcell 1 was reference, no test mAb). All 4 flowcells were then blocked by injection with isotype control mAb at 50 ug/ml. All 4 flowcells were then injected with antigen or buffer only (buffer only is for double referencing, done for each mAb pair individually). All 4 flowcells were then injected with 2nd test mAb at 10 ug/ml. All 4 flowcells were then regenerated with glycine, pH1.5.

In assay [2] the target is T2, mouse PRLR on Baf3-mPRLR cells (mouse, UniProt Q08501 20-608).
T2 sequence (looked up): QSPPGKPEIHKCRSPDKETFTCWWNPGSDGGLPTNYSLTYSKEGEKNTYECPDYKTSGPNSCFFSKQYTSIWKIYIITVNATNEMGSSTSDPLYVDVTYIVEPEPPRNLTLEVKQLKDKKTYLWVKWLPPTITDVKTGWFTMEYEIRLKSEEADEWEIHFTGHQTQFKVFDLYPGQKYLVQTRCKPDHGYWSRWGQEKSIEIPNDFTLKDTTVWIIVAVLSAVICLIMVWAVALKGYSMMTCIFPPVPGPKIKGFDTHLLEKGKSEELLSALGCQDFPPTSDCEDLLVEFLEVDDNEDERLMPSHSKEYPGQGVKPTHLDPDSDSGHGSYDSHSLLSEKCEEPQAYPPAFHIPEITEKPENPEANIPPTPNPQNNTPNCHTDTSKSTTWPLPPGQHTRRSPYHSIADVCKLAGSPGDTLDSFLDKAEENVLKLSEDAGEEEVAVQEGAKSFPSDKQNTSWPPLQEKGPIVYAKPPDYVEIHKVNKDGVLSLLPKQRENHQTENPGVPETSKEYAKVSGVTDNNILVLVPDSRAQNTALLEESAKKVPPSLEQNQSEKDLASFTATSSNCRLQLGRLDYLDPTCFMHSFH
The experiment in a line: cell-based or functional assay.

The next assay concerns the target T3, human PRLR on cells (human, UniProt P16471 25-622).
T3 sequence: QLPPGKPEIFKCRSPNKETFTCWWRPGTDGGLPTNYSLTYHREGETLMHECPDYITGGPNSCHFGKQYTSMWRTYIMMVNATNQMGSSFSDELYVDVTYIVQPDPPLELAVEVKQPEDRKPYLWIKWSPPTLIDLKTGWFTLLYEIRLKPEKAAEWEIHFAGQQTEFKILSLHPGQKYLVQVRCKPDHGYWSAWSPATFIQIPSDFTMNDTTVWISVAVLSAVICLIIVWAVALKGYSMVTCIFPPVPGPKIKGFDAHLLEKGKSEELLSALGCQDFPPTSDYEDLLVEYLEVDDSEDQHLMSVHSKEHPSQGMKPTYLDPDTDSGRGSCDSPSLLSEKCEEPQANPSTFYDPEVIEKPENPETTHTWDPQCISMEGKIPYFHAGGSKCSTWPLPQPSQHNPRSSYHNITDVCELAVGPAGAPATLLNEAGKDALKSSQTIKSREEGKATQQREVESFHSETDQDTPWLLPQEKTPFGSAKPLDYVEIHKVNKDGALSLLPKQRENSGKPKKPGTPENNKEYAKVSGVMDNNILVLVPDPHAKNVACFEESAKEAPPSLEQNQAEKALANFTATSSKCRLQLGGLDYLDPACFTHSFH
In words: cell-based or functional assay.

The target in assay [3] is T4, cyno PRLR (Biacore antigen) (cyno, UniProt A0A2K5WXK1 25-234).
T4 construct: also called cyPRLR
T4 sequence: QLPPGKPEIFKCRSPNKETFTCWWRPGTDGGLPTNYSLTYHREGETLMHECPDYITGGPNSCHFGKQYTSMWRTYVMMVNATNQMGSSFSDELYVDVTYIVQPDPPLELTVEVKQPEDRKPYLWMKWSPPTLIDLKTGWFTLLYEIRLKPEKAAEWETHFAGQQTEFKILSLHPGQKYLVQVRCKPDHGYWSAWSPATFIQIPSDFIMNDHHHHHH
In words: SPR Biacore. A digest of the protocol:
(§3)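 Association rate, dissociation rate and dissociation constant were measured by surface plasmon resonance on a Biacore instrument. PRLR antigen was tested at 600 nM, 66.67 nM and 7.41 nM, a 3-point, 9-fold dilution series. Constants came from a 1:1 binding model fit (local Rmax, mass-transport term included) in Biacore T200 Evaluation Software.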

The target in assay [4] is T1, human PRLR (Biacore antigen). In words: SPR Biacore. The method, boiled down: as §3
Assay [5] has the same target. In words: SPR simultaneous binding; PRLR held by surface mAb chAb6. The protocol: as §1, §2
The target in assay [6] is T5, murine PRLR (Biacore antigen) (murine, UniProt Q08501 20-229, limits assumed).
T5 construct: also called muPRLR
T5 sequence (looked up): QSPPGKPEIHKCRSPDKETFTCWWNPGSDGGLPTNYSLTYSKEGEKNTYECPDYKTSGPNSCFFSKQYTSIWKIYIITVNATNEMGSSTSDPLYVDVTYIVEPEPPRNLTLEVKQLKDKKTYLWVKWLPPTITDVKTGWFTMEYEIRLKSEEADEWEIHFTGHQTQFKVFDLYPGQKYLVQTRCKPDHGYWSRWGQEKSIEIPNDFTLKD
In words: SPR Biacore. The method, boiled down: as §3

B1: Ab19 (antibody, human IgG1, kappa, V domains shown)
VH: EVQLVQSGAEVKKPGSSVKVSCKASGYTFTTYWMHWVRQAPGQGLEWIGEIDPSDSYSNYNQKFKDRATLTVDKSTSTAYMELSSLRSEDTAVYYCARNGGLGPAWFSYWGQGTLVTVSS
VL: DIQMTQSPSSVSASVGDRVTITCKASQYVGTAVAWYQQKPGKSPKLLIYSASNRYTGVPSRFSDSGSGTDFTLTISSLQPEDFATYFCQQYSSYPWTFGGGTKVEIKR
notes: humanized from Ab6; G1; also called Ab1 HC.1a and Ab1 LC.1a
As for B1, in assay [1], the “solution mAb binding, % of PRLR binding” value was determined as 1%. The “Baf3-mPRLR proliferation IC50” value in assay [2] is greater than 30 µg/mL. Moreover, in the assay with human PRLR on cells, the “Baf3-hPRLR proliferation IC50” value was 0.12 µg/mL. In assay [3], this molecule showed a Kd of 0.691 nM, an off-rate (koff) of 0.000728 s⁻¹ and a kon of 1.05e+06 M⁻¹ s⁻¹. In assay [4], this molecule gave a Kd of 0.409 nM, a koff of 0.000403 s⁻¹ and a kon of 985000 M⁻¹ s⁻¹. Also, the “solution mAb binding, % of PRLR binding” value in assay [5] was found to be 0%.

B2: Ab21 (antibody, human IgG1, kappa, V domains shown)
VH: EVQLVQSGAEVKKPGSSVKVSCKASGYTFTTYWMHWVRQAPGQGLEWIGEIDPSDSYSNYNQKFKDRATLTVDKSTSTAYMELSSLRSEDTAVYYCARNGGLGPAWFSYWGQGTLVTVSS
VL: EIVMTQSPATLSVSPGERATLSCKASQYVGTAVAWYQQKPGQSPRLLIYSASNRYTGVPARFSDSGSGTEFTLTISSLQSEDFAVYFCQQYSSYPWTFGGGTKVEIKR
notes: humanized from Ab6; G1; also called Ab1 HC.1a and Ab1 LC.2a
As for B2, the “solution mAb binding, % of PRLR binding” value in assay [1] worked out at 0%. In addition, the “Baf3-mPRLR proliferation IC50” value in assay [2] is greater than 30 µg/mL. For the same molecule, the “Baf3-hPRLR proliferation IC50” value with human PRLR on cells amounted to 0.15 µg/mL. In assay [4], binding was put at a Kd of 0.554 nM, the koff worked out at 0.000586 s⁻¹ and the kon came to 1.06e+06 M⁻¹ s⁻¹. In addition, the “solution mAb binding, % of PRLR binding” value in assay [5] was -1%.

B3: chAb8 (antibody, human IgG1, kappa, V domains shown)
VH: EVQLQQSGPELVKPGASVKISCKASGYTFTDYNIHWVKQSHGKSLEWIGYIYPNNDGTGYNQKFKSKATLTVDNSSSTAYMEVRSLTSEDSAVYYCARGDGNYVGDMDYWGQGTSVTVSS
VL: DIQMTQSPASLSASVGETVTITCRASENIYSYLAWYQQKQGKPPQLLVYNAKTLAEGVPSRFSGGGSGTQFSLKINSLQPEDFGSYYCQHHYATPFTFGSGTKLEIKT
notes: chimeric, murine variable and human G1/kappa constant regions
With B3, the “solution mAb binding, % of PRLR binding” value in assay [1] and in assay [5] was -1% in each case. In addition, the “Baf3-hPRLR proliferation IC50” value with human PRLR on cells came out at 0.3 µg/mL. Also, the Kd is 3.44 nM in assay [3], 0.183 nM in assay [4] and 291 nM in assay [6]. The results for the off-rate constant (koff) in assay [3], in assay [4] and in assay [6] were 0.00177 s⁻¹, 9.1e-05 s⁻¹ and 0.0538 s⁻¹, respectively. For the same molecule, the kon in assay [3] was determined as 514000 M⁻¹ s⁻¹; in assay [4], 496000 M⁻¹ s⁻¹; in assay [6] it was 185000 M⁻¹ s⁻¹.

B4: Ab30 (antibody, human IgG1, kappa, V domains shown)
VH: EVQLVQSGAEVKKPGSSVKVSCKASGYTFTSFWMHWVRQAPGQGLEWIGVIDPSDTYTNYNQKFKGRATLTVDESSSTAYMELSSLRSEDTAVYYCARGDYSNWFTYWGQGTLVTVSS
VL: DVVMTQTPLSLSVTPGQPASISCRSSQRLVHSNGNTYLHWYLQKPGQSPQLLIYKVSNRFSGVPDRFSGSGSGTDFTLKISRVEAEDVGVYFCSQSTHVPWTFGGGTKVEIKR
notes: humanized from Ab5; G1; also called Ab2 HC.1a and Ab2 LC.1a
As for B4, the “solution mAb binding, % of PRLR binding” value in assay [1] was 6%; in assay [5], -1%. Also, the “Baf3-hPRLR proliferation IC50” value with human PRLR on cells was 0.14 µg/mL. Moreover, the values for the Kd in assay [3], in assay [4] and in assay [6] were 1.59 nM, 1.29 nM and 40 nM, respectively. The values for the koff in assay [3], in assay [4] and in assay [6] were 0.000523 s⁻¹, 0.000437 s⁻¹ and 0.0056 s⁻¹, respectively. Moreover, the kon turned out to be 330000 M⁻¹ s⁻¹ in assay [3], 339000 M⁻¹ s⁻¹ in assay [4] and 140000 M⁻¹ s⁻¹ in assay [6].

B5: Ab49 (antibody, human IgG1, kappa, V domains shown)
VH: EVQLVQSGAEVKKPGASVKVSCKASGYTFTDYNIHWVRQAPGQGLEWIGYIYPNNDGTGYNQKFKSRATLTVDNSTSTAYMELRSLRSDDTAVYYCARGDGNYVGDMDYWGQGTTVTVSS
VL: DIQMTQSPSSLSASVGDRVTITCRASENIYSYLAWYQQKPGKAPKLLVYNAKTLAEGVPSRFSGSGSGTDFTLTISSLQPEDFATYYCQHHYATPFTFGQGTKLEIKR
notes: humanized from Ab8; G1; also called Ab3 HC.1a and Ab3 LC.1b
With B5, the “solution mAb binding, % of PRLR binding” value in assay [1] is -1%. In assay [2], the “Baf3-mPRLR proliferation IC50” value is greater than 30 µg/mL. The “Baf3-hPRLR proliferation IC50” value in the assay with human PRLR on cells is 0.37 µg/mL. In addition, in assay [4], binding was characterised by a dissociation constant (Kd) of 0.214 nM, the koff amounted to 0.00012 s⁻¹ and the kon amounted to 558000 M⁻¹ s⁻¹. In assay [5], the “solution mAb binding, % of PRLR binding” value is -2%.

B6: chAb6 (antibody, human IgG1, kappa, V domains shown)
VH: QVQLQQPGAELVMPGSSVKLSCKASGYTFTTYWMHWVKQRPGQGLEWIGEIDPSDSYSNYNQKFKDKATLTVDKSSSTAYMQLSSLTSEDSAVYYCARNGGLGPAWFSYWGQGTLVTVSA
VL: DIVMTQSQKFMSTTVGDRVSITCKASQYVGTAVAWYQQKPGQSPKLLIYSASNRYTGVPDRFTDSGSGTDFTLTISNLQSEDLADYFCQQYSSYPWTFGGGTKLEIKT
notes: as for B3
In the case of B6, the “solution mAb binding, % of PRLR binding” value in assay [1] was 0%; in assay [5], -1%. In the assay with human PRLR on cells, the “Baf3-hPRLR proliferation IC50” value is 0.28 µg/mL. Besides, the Kd in assay [3] was 0.794 nM; in assay [4], 0.469 nM; in assay [6], 608 nM. Moreover, the koff came out at 0.00103 s⁻¹ in assay [3], 0.000536 s⁻¹ in assay [4] and 0.36 s⁻¹ in assay [6]. In addition, the results for the kon in assay [3], in assay [4] and in assay [6] were 1.3e+06 M⁻¹ s⁻¹, 1.14e+06 M⁻¹ s⁻¹ and 591000 M⁻¹ s⁻¹, respectively.

These data come from patent US20170022281A1 (AbbVie / Abbott, published 2017).
